Test results from patent US20060140932A1 (APPLIED MOLECULAR EVOLUTION, published 2006).

Legend:
human IL-1β [1] = target: T1, human IL-1β (human, UniProt P01584 117-269); experiment: cell-based or functional assay
human IL-1β [2] = target: T1, human IL-1β; experiment: SPR (BIAcore), captured antibody, human IL-1β flowed; protocol for Mu007 as in PCT/US02/21281; HBS-EP pH 7.4, 25 C
human IL-1β [3] = target: T1, human IL-1β; experiment: SPR (BIAcore), antibody captured on protein A, human IL-1β flowed; HBS-EP pH 7.4, 25 C
Protocol: BIAcore™ is an automated biosensor system that measures molecular interactions. (Karlsson, et al. (1991) J. Immunol. Methods 145: 229-240). In these experiments antibody was captured to a surface at low density on a BIAcore™ chip. Ethyl-dimethylaminopropyl-carbodiimide (EDC) was used to couple reactive amino groups to protein A to a flow cell of a carboxy-methyl (CM5) BIAcore sensor chip. Protein A was diluted in sodium acetate buffer, pH 4.5, and immobilized on a flow cell of a CM5 chip using EDC to yield 1000 response units. Unreacted sites were blocked with ehanolamine. A flow rate of 60 μl/min was used. […] Elution was performed with glycine-HCl, pH 1.5. BIAevaluation™ was used to analyze the kinetic data.

human IL-1β [4] = target: T1, human IL-1β; experiment: cell-based or functional assay; remark: listed apart in the source

| Binder | Fold Increase in Potency (against Mu007), T1165.17 cell proliferation assay (human IL-1β [1]) [fold] | IC50, T1165.17 cell proliferation assay (human IL-1β 0.3 pM) (human IL-1β [1]) [pM] | Kd (human IL-1β [2]) [pM] | koff (human IL-1β [2]) [s⁻¹] | kon (human IL-1β [2]) [M⁻¹ s⁻¹] | Kd (human IL-1β [3]) [pM] | koff (human IL-1β [3]) [s⁻¹] | kon (human IL-1β [3]) [M⁻¹ s⁻¹] | IL-6 Serum Levels in mice, human IL-1β 3 µg/kg + antibody 13 µg/kg (human IL-1β [4]) [pg/mL] | IL-6 Serum Levels in mice, human IL-1β 3 µg/kg + antibody 27 µg/kg (human IL-1β [4]) [pg/mL] | IL-6 Serum Levels in mice, human IL-1β 3 µg/kg + antibody 81 µg/kg (human IL-1β [4]) [pg/mL] | IL-6 Serum Levels in mice, human IL-1β 3 µg/kg + antibody 270 µg/kg (human IL-1β [4]) [pg/mL] |
| --- | --- | --- | --- | --- | --- | --- | --- | --- | --- | --- | --- | --- |
| Mu007 (antibody, V domains shown) VH: QVQLQQSGAELMKPGASVKISCKATGYTFSRYWIEWIKQRPGHGLEWIGEILPGNGNINYNEKFKGKATISADSSSETAYMQLSSLSSEDSAVYYCSTIYYDYDQGFTYWGQGTLVTVSA VL: DIKMTQSPSSMYASLGERVTITCKASQDIDRYLSWFQQKPGKSPKTLIYRVKRLVDGVPSRFSGSASGQDYSLTISSLQYEDMGIYYCLQYDEFPYTFGGGTKLEIK | 1 | 20.6 | 6.2 | 0.00016 | 2.6e+07 |  |  |  |  |  |  |  |
| W17 (IgG1) (antibody, humanized, IgG1 kappa) heavy: not shown light: DIQMTQSPSSLSASVGDRVTITCKFSQDIDRFLSWFQQKPGKAPKSLIYRVKRLVDGVPSRFSGSGSGTDFTLTISSLQPEDFATYYCVQYDEFPYGFGGGTKVEIKRTVAAPSVFIFPPSDEQLKSGTASVVCLLNNFYPREAKVQWKVDNALQSGNSQESVTEQDSKDSTYSLSSTLTLSKADYEKHKVYACEVTHQGLSSPVTKSFNRGEC | 11 | 1.8 |  |  |  | 2.8 | 9e-05 | 3.1e+07 | 567 | 410 | 114 | 27.5 |
| U43 (IgG1) (antibody, V domains shown, humanized, IgG1 kappa) VH: QVQLVQSGAEVKKPGSSVKVSCKASGYTFDRYWIEWVRQAPGQGLEWMGEILPGSGDINYNEKFKGRVTITADKSTSTAYMELSSLRSEDTAVYYCARMYYDYDQGFSLWGQGTLVTVSS VL: DIQMTQSPSSLSASVGDRVTITCKASQDIDRFLSWFQQKPGKAPKSLIYRVKRLVDGVPSRFSGSGSGTDFTLTISSLQPEDFATYYCVQYDEFPYTFGGGTKVEIKR | 5 | 4 |  |  |  | 4.7 | 0.00022 | 4.7e+07 | 756 | 509 | 186 | 39.3 |
| W13 (IgG1) (antibody, V domains shown, humanized, IgG1 kappa) VH: QVQLVQSGAEVKKPGSSVKVSCKASGYTFDRYWIEWVRQAPGQGLEWMGEILPGSGDINYNEKFKGRVTITADKSTSTAYMELSSLRSEDTAVYYCARMYYDYDQGFDYWGQGTLVTVSS VL: DIQMTQSPSSLSASVGDRVTITCKFSQDIDRFLTWFQQKPGKAPKSLIYRVKRLVDGVPSRFSGSGSGTDFTLTISSLQPEDFATYYCIQYDEFPYTFGGGTKVEIKR | 17 | 1.2 |  |  |  | 2.8 | 0.00017 | 6.1e+07 | 655 | 277 | 129 | 23.4 |
| W18 (IgG1) (antibody, V domains shown, humanized, IgG1 kappa) VH: QVQLVQSGAEVKKPGSSVKVSCKASGYTFDRYWIEWVRQAPGQGLEWMGEILPGSGTINYNEKFKGRVTITADKSTSTAYMELSSLRSEDTAVYYCARMYYDYDQGFDNWGQGTLVTVSS VL: DIQMTQSPSSLSASVGDRVTITCKFSQDIDRFLSWFQQKPGKAPKSLIYRVKRLVDGVPSRFSGSGSGTDFTLTISSLQPEDFATYYCVQYDEFPYTFGGGTKVEIKR | 10 | 2 |  |  |  | 4.2 | 0.00018 | 4.1e+07 | 398 | 232 | 77.9 | 18 |
| W20 (IgG1) (antibody, V domains shown, humanized, IgG1 kappa) VH: QVQLVQSGAEVKKPGSSVKVSCKASGYTFDRYWIEWVRQAPGQGLEWMGEILPGSGDINYNEKFKGRVTITADKSTSTAYMELSSLRSEDTAVYYCARMYYDYDQGFDYWGQGTLVTVSS VL: DIQMTQSPSSLSASVGDRVTITCKFSQDIDRFLSWFQQKPGKAPKSLIYRVKRLVDGVPSRFSGSGSGTDFTLTISSLQPEDFATYYCVQYDEFPYTFGGGTKVEIKR | 17 | 1.2 |  |  |  | 2.7 | 0.0001 | 3.8e+07 |  |  |  |  |
| W17 (IgG4) (antibody, humanized, IgG4 kappa) heavy: not shown light: DIQMTQSPSSLSASVGDRVTITCKFSQDIDRFLSWFQQKPGKAPKSLIYRVKRLVDGVPSRFSGSGSGTDFTLTISSLQPEDFATYYCVQYDEFPYGFGGGTKVEIKRTVAAPSVFIFPPSDEQLKSGTASVVCLLNNFYPREAKVQWKVDNALQSGNSQESVTEQDSKDSTYSLSSTLTLSKADYEKHKVYACEVTHQGLSSPVTKSFNRGEC | 12 | 1.7 |  |  |  | 3.3 | 0.0001 | 3.2e+07 |  |  |  |  |
